Stoichiometry N data for one molecule are collected here from publication PMC9694023.

This experiment addresses T1, endogenous IRF7 of HEK293 cells (human (endogenous in HEK293)), Q92985.
T1 chain: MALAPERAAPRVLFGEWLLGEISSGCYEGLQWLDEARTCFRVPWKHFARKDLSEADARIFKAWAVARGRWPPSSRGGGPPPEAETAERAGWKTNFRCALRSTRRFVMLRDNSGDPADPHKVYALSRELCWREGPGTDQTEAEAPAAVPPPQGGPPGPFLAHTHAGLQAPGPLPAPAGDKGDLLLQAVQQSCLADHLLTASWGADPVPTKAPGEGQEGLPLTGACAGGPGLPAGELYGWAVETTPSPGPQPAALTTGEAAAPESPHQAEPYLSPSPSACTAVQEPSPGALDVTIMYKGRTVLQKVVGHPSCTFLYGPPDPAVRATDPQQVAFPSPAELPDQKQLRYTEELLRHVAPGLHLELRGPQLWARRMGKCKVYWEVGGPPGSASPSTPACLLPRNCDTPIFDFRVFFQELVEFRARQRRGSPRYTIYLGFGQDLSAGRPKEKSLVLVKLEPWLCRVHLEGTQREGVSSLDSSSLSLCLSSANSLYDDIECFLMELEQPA
Put plainly: native gel or EMSA. The settings on record: remark: other sources report otherwise. On the technique in general: Mobility shift assays separate free from complexed probe on a gel.

B1: endogenous IRF7 of HEK293 cells, Q92985 1-503 (natural protein)
chain: MALAPERAAPRVLFGEWLLGEISSGCYEGLQWLDEARTCFRVPWKHFARKDLSEADARIFKAWAVARGRWPPSSRGGGPPPEAETAERAGWKTNFRCALRSTRRFVMLRDNSGDPADPHKVYALSRELCWREGPGTDQTEAEAPAAVPPPQGGPPGPFLAHTHAGLQAPGPLPAPAGDKGDLLLQAVQQSCLADHLLTASWGADPVPTKAPGEGQEGLPLTGACAGGPGLPAGELYGWAVETTPSPGPQPAALTTGEAAAPESPHQAEPYLSPSPSACTAVQEPSPGALDVTIMYKGRTVLQKVVGHPSCTFLYGPPDPAVRATDPQQVAFPSPAELPDQKQLRYTEELLRHVAPGLHLELRGPQLWARRMGKCKVYWEVGGPPGSASPSTPACLLPRNCDTPIFDFRVFFQELVEFRARQRRGSPRYTIYLGFGQDLSAGRPKEKSLVLVKLEPWLCRVHLEGTQREGVSSLDSSSLSLCLSSANSLYDDIECFLMELEQPA
The stoichiometry N is a count of units in the complex or per binding partner. B1 returned a stoichiometry N of 2.
